Test: soluble on expression in E. coli; label from the status in PepcDB or PDB records

| Sequence | soluble on expression in E. coli |
| --- | --- |
| MPRPKILKRATVQPSAAVPVKKSTPEKEGSRQKKTNGKENASRNLQSNLEEDLEQLGFEDETVSMAQSAIENYFMQGKSASERMNNAKSRRGRRAGNGNTEEIEEDDEISNAITDFTKCDLPGLRNYITKKDNTEFEKRLEHLADNDFGKWKLYLAAGFNILLHGVGSKRDVLTEFENELSDYTYMRVDARKDGLNVKVLLGAINENMKLNCNVKRGQSTISWARSIRRKMNSQQLILIIDNIEAPDWRSDQEAFCELLENRDSVKLIATVDHIYSTFIWNSRQLSSLSFVHITINTFEIPLQELMTGDSRLLGLDARSNQSSHTMSSLDVFWKSLAVNSQKLFRLFFQMYFDTKKPVKFWDLFNAAKDDFIASTDAALRTQLVEFKDHRVLKWTRGDDGNDQLSGIVELRLVTEFLESKNMPLDEKKDE | not soluble |
| MPRVSASPRTPPPPVMDLRMSEDSAFPIDFSALTRAQLENITRVCHGSAGSVFQQAGLFTSAGLPIVNNVRLKLAQRDADAFTTFEELINLFEDFYGRLALIEDTQNNLLLSALSAGDEPGETLQ | not soluble |
| MPSENSRPMPSFPRRRESRPWDNGNIQRLSESPRFWIPTFVGMTGCRFVGMTWCRFPYGWIRHSRAGGNLERKI | not soluble |
| MPSMSPIDKSWSTCPYGFLDGTHQELRRIFHLWRCKKYRSQFTEEKKATYEEKLAASELFKDKKALYPSSVSQPFKGDYVEITKNPKYQKLNSLVEDKVLLADVVSKINRANGKGTPRIFLLTKKCLVLADQKTGQVKASVPLPDLSSVFVSTQNDGFFALKLREGATSAAKGDYLLSSDRLIEIITKLYCTGAASAERNQIKIDISDEFLVQFKQDKVCVKFIQGTPKNSNSVSCKRKNNRLLEVSVPSP | soluble |
| MPSNDIQGLELPQSYFNAAAKRQKYAMKPGLSALEKNAVIKAAYRQIFERDITKAYSQSISYLESQVRNGDISMKEFVRRLAKSPLYRKQFFEPFINSRALELAFRHILGRGPSSREEVQKYFSIVSSGGLPALVDALVDSQEYADYFGEETVPYLRGLGVEALEHHHHHH | soluble |
| MPSPSGGWGCGGTWARGVDGARLFSIHHQAVRPNLSTISPPKEPPMIEVRHLCKSFARKPAVQDISFSIPAGEIVGYLGPNGAGKSTTIKVLTGLLVPDSGEVRVGGLVPWKQRRQHVARLGAVFGQRTTLWWDLPVRESLELLRHVYRVPAARFAENLAGFTELLELGPFLNTPARALSLGQRMRADLAAALLHDPELLFLDEPTVGLDVVAKERIREFVKAVNAERGVTVLLTTHDLGDVERLARRVMMIDTGRLLFDGPLAELQARYGGERELWVEFEKAPAQPALPGLTLLGQDGPRVRYGFSGAAAAPIAQVTALAPVRDLAVKEPEVEATIRRIYEGNLLGSRSVREGLEHHHHHH | not soluble |
| MPSRLHSAVMSGTRDGDLNAAIRTALGKVIDPELRRPITELGMVKSIDTGPDGSVHVEIYLTIAGCPKKSEITERVTRAVADVPGTSAVRVSLDVMSDEQRTELRKQLRGDTREPVIPFAQPDSLTRVYAVASGKGGVGKSTVTVNLAAAMAVRGLSIGVLDADIHGHSIPRMMGTTDRPTQVESMILPPIAHQVKVISIAQFTQGNTPVVWRGPMLHRALQQFLADVYWGDLDVLLLDLPPGTGDVAISVAQLIPNAELLVVTTPQLAAAEVAERAGSIALQTRQRIVGVVENMSGLTLPDGTTMQVFGEGGGRLVAERLSRAVGADVPLLGQIPLDPALVAAGDSGVPLVLSSPDSAIGKELHSIADGLSTRRRGLAGMSLGLDPTRR | not soluble |
| MPSRVPKSIFYNQVGYLISGDKRFWIQAHEPQPFALRTPEGQAVFAGMTKPVGGNWYVGDFTALRVPGTYTLTVGTLEARVVIHRRAYRDVLEAMLRFFDYQLCGVVLPEDEAGPWAHGACHTSDAKVFGTERALACPGGWHDAGDYGKYTVPAAKAVADLLLAHEYFPAALAHVRPMRSVHRAPHLPPALEVAREEIAWLLTMQDPATGGVYHKVTTPSFPPLDTRPEDDDAPLVLSPISYAATATFCAAMAHAALVYRPFDPALSSCCADAARRAYAWLGAHEMQPFHNPDGILTGEYGDAELRDELLWASCALLRMTGDSAWARVCEPLLDLDLPWELGWADVALYGVMDYLRTPRAAVSDDVRNKVKSRLLRELDALAAMAESHPFGIPMRDDDFIWGSNMVLLNRAMAFLLAEGVGVLHPAAHTVAQRAADYLFGANPLGQCYVTGFGQRPVRHPHHRPSVADDVDHPVPGMVVGGPNRHLQDEIARAQLAGRPAMEAYIDHQDSYSTNEVAVYWNSPAVFVIAALLEARGR | soluble |
| MPSSSNSAAFSLDEFAKALDKHDYHAEKGQTVHGKICQHANEGVYVDFGGKSPGFVPVQELGLRPHAEIEDSFPLDSAWDFLVTSEQNDEGQVRLSRRQLQIQQSWENLAELEESGKTLEMVVTGTNKGGVVGDVEGLRGFIPRSHLMHKDNMDALVGQVLKAHILEANQDNNKLVLTQRRIQQAESMGKIAAGNIYEGKVAKIQPYGVFVEIEGVTGLLHVSQVSGTRVDSLNTLFAFGQAISVYVQEIDEYKNRISLSTRILETYPGELVEKFDEMMADAPNRLPLVQSKQNLGDKQEQLEKSLEHHHHHH | not soluble |
| MPSYKLTYFAVRGLAEPARLLFHLAGVPFEDERLTFGDGSWEKLKDKTPMGQMPVLNVDGFEIPQSAAITRYLARKFGFAGKTPEEEAWVDAVVDQFKDFFGEFRKLIIAQRAGKSVEEIEKLTKEVINPAVSSFFKILNGLLEKSKSGYLIGDSITFADLFIAEDMQSLKNFGFLNATEQPKIAAHLEKVYSHPKLKSYIASRPVTEI | not soluble |
| MPSYKLTYFNVRGYGEPARILFHLADVPFEDFRMTIGDGTWENLKAKTPFGQAPVLSVDGFEIPQSAAINRYLAKQFGYAGKTPEEQAWTDAIVDQYKDFMVSIKEVGKASAAGKSAEEVGKIIQSDLVPARDAFFVIINKILEKSKSGFLVGDGLTIADIVIVECITTLDKHQLFTASEQPKLVALREKVYAIPAIKKWVEIRPDTLN | not soluble |
| MPTFSLWLPAGSNNVHPCGDPYAHHLFMRCLYHAKHDPTMKFDVKTTNVNKTSQEFKNTGLRRMPGISAEESGETQTFETEDDILDFLEYLKPERGDDEEAENATCDLFRQFARFVKDVEHRDTAFNTELLRLDKYLSEQETKFLISDDVTHIDCLVLTRLHSIRVAAKMLKNYEIPADLSHVLDYLKAGYATEMFRVSCPSDQEIVLHWTELKDTPRLSAKDRAKLVREEPVFSFSV | not soluble |
| MPTFTTHRQIAHSAREMFDLVADIECYPEFLPMCEALIVRSRKKCEEKTLLLADMTVGYKLVRETFTTQVFLQPKEKRIEVKYIDGPFKYLENRWAFHHTEKSNICNIEFFIDYEFKSKMLGLVMGSMFDIAFHKFTDAFERRAHRIYGSPVI | soluble |
| MPTLSSNLKHLRLLLGRSQGEFAEQLGIAQSTLSSVERENRPPSTKLINTARFQTGVSAEYFEASIHFYAAPDLLFRSAREGRANADKIAAAFSIAEHYLRERYPDVTSDLPTIPIADLEGELSLRMLEEFASQTRDHFGIDQDSMIPNLTTVLNNHGILVTSLPDYVVEGTNFDGVSTPTDSTLRIIALNQQRSGDRYRFSLAHELAHLILHANTLRSDKSQMEKEANIFAASFLMPRALLTPVITPELTLKDYAELKAQWGYSIQAIVRRAHELELIDYKRYRSLRMQIAGRGWNINEPVDVLLENVYIDPIDLLSNNIKKHQSTNEGLATVTSLHKQ | not soluble |
| MPTNQDLQLAAHLRSQVTTLTRRLRREAQADPVQFSQLVVLGAIDRLGGDVTPSELAAAERMRSSNLAALLRELERGGLIVRHADPQDGRRTRVSLSSEGRRNLYGNRAKREEWLVRAMHACLDESERALLAAAGPLLTRLAQFEEP | soluble |
| MPTTQINIVLAEPRCMAGEFFNAKVLLDSSDPDTVVHSFCAEIKGIGRTGWVNIHTDKIFETEKTYIDTQVQLCDSGTCLPVGKHQFPVQIRIPLNCPSSYESQFGSIRYQMKVELRASTDQASCSEVFPLVILTRSFFDDVPLNAMSPIDFKDEVDFTCCTLPFGCVSLNMSLTRTAFRIGESIEAVVTINNRTRKGLKEVALQLIMKTQFEARSRYEHVNEKKLAEQLIEMVPLGAVKSRCRMEFEKCLLRIPDAAPPTQNYNRGAGESSIIAIHYVLKLTALPGNGVLY | not soluble |
| MPTVPFPILRLPNAILQRSLQQMSPIGLISLSVLSNNMKQIVTMPNNKSRFDGRISTTLPITLHLNVDRNSRHHYVEYAFQFNQSVLRIQDIRGQEPATLTKPGFTDKLWIEHVAEVLFQNKGVILSCDAPFRTYIKELLKNINVTLIAIRSSGFEVWKFFELFPSLEKVTFTEGPIPLSVLSRNLDGLKVNTKDVPLDDALTSNSLSFAMHRNSFTMKEINLFIKQWIRGCNPRLEMFQILFNDIERHLVLENVIFKGINYIEKRNRIVQCQEREEYRIERFDGTEALVWFNPNRFPFLEMTVMMNDDDDKLLV | not soluble |
| MPVGTAEGIYKRRAIGGTGRPECLPYHFHEMQGALAHRGALDYSALPVQGASWSDLDPLEFERFRRFIRESRGQGDKSLLDLPDVELAKALGAVKANHEVRTVRVLGLLLFGKEEALQRFIPTHEVAFQVLRGTRVEVNDFFRWPLLRTMEELLTRFRAWNHEEEVSFGLMRIGVPNYSERAFREGLANALIHRDYTRLGAVHVQWHEDRIEISNPGGFPEGIHLGNLLVAPPRPRNPLLADAFKRAGVVERTGRGIDIIFEEQLRNGRPAPSYEQSTPESVVLVLPGGEANLNFVRLIVEEGQARRPLRLDELLVLNGLWQERQLTTKEAARLIQKTEATARAVLERLVETGLIEARGTGRGRTYHLSASTYRRLGEEAAYVRLKGFEHQQMEQMVLEYVRAHGRITRREAAELCRIGPYQATRLLKRMVEQGKLTPHGVGKGTWYALRS | soluble |
| MPVHSRGDKKETNHHDEMEVDYAENEGSSSEDEDTESSSVSEDGDSSEMDDEDCERRRMECLDEMSNLEKQFTDLKDQLYKERLSQVDAKLQEVIAGKAPEYLEPLATLQENMQIRTKVAGIYRELCLESVKNKYECEIQASRQHCESEKLLLYDTVQSELEEKIRRLEEDRHSIDITSELWNDELQSRKKRKDPFSPDKKKPVVVSGPYIVYMLQDLDILEDWTTIRKAMATLGPHRVKTEPPVKLEKHLHSARSEEGRLYYDGEWYIRGQTICIDKKDECPTSAVITTINHDEVWFKRPDGSKSKLYISQLQKGKYSIKHS | soluble |
| MPYKNILTLISVNNDNFENYFRKIFLDVRSSGSKKTTINVFTEIQYQELVTLIREALLENIDIGYELFLWKKNEVDIFLKNLEKSEVDGLLVYCDDENKVFMSKIVDNLPTAIKRNLIKDFCRKLS | soluble |
| MQAAKVDTLSVHSDAMNKEVQVITICPDKAMAGEKCPVLYLLHGYGGNAGTWLGIKPELPRIADKEGIIFVCPDGKNSWYWDSPLNKEYRYETFVSKELVNYIDKNFTTKAERGGRAVTGLSMGGHGSLWLSIRHKDVFGGGGSMSGGLDIRPFPNNWEMKKQLGEEASNKQRWDEHTVINQLDKIKNGDLAVIIDCGCDDFFLEVNKAVHEKLLKKKINHDFIIRPGGHTGRYWNNAIDYQILFFSKFFNK | not soluble |
| MQAEILLTLKLQQKLFADPRRISLLKHIALSGSISQGAKDAGISYKSAWDAINDMNQLSEHMLVERATGGKGGGGAVLTRYGQRLIQLYDLLGQIQQKAFDVLSDDDALPLDSLLAAISRFSLQTSARNQWFGTITARDRDLVQQHVDVLLADGKTRLKVALTAQSGERLGLEEGKEVLILLKAPWVGITRDAAVARAADNQLSGTISHIERGAEQCEVLMALPDGQTLCATIPTSDAATLKEGDDVIAWFNADRVIIATLC | not soluble |
